Here are results for 8 molecules from patent US20220177596A1 (Bristol-Myers Squibb, published 2022).

Values joined by “and” are separate entries in the source; they are usually repeats but may differ in a detail not shown here. Equal entries are not always repeated.

Test [1] has as its target human CD40 on primary human cells (tonsillar B cells, immature dendritic cells) (human, UniProt P25942 21-277). In words: cell-based or functional assay.
The target in test [2] is T1, human-CD40 monomer (human, UniProt P25942 21-193, limits assumed).
T1 construct: also called hCD40-monomer; human-CD40-monomer protein
T1 sequence (P25942 21-193 limits assumed): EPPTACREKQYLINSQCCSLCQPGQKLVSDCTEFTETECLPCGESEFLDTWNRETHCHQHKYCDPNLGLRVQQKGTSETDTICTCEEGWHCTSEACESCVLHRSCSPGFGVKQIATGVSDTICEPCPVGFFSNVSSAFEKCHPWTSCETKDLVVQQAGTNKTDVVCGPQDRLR
In words: SPR, Ab captured on protein A, CD40 monomer analyte. An excerpt: Based on the supernatant screening SPR data and bias towards constructs with fewer framework back-mutations, a subset of humanized Y1238 antibodies were selected for expression, purification, and further characterization. Two of these antibodies (i.e., Y1238-hz1 and Y1238-hz2) were formatted with P238K and N297A isotypes (i.e., SEQ ID NOS: 39, 40, 42, and 43 for heavy chains; see TABLE 15 for light chains) and tested for CD40 and FcgR binding by SPR. […] The Fc domain is underlined.

Test [3] has as its target T1, human-CD40 monomer. Kind of test: SPR full kinetics, Ab on protein A. How it is done: The VH sequences were formatted in the context of an IgG1.3f isotype. The Vκ sequences were formatted as a full light chain with a common CL sequence. All 55 combinations of these humanized HC and LC constructs, as well as the chimeric Y1238 molecule were expressed as 3 ml supernatants for binding analysis by SPR. […] All antibodies, except for those containing hz-HC3, captured at high levels (>300 RU) using a 100-fold dilution of the expression supernatant, indicating a high antibody titer in the supernatant except for the hz-HC3 samples. The kinetic data for the two concentrations of hCD40-monomer were fit to a 1:1 Langmuir model, to yield estimates of the kinetic and affinity values for these interactions, and for comparison of the different molecules. […] Also, for a given heavy chain, the antibodies with light chains hz-LC1 or hz-LC2 had higher CD40 affinity than those with hz-LC3, hz-LC4 or hz-LC5.

Test [4] addresses T1, human-CD40 monomer. In words: SPR 2 pt screen, Ab on protein A. The method, boiled down: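 Antibodies as IgG1.3f supernatants (100-fold diluted) or purified chimeric IgG1, captured on a protein A chip; hCD40 monomer flowed over at 200 and 1000 nM by SPR. Kinetic and affinity values from a 1:1 Langmuir fit.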
Test [5] has as its target T1, human-CD40 monomer. In words: SPR, Ab captured on protein A, CD40 monomer analyte. How it is done: These chimeric antibodies were tested for CD40 and FcgR binding by SPR, as well as for iDC activation.
This is another data set of the same source. Background: In SPR one partner is held on a chip, and binding of the other changes the refractive index at the surface.

Sequence of human CD40 on primary human cells (tonsillar B cells, immature dendritic cells) (P25942 21-277 limits assumed): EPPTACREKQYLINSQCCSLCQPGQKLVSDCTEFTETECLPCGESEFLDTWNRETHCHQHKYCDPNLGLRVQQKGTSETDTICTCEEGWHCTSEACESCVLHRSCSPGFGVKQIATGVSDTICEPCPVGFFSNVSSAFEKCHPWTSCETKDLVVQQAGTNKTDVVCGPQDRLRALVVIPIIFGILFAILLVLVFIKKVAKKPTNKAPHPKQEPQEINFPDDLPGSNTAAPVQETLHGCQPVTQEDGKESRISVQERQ

B1: Y1238-hz2-N297A (antibody, human IgG1, kappa, N297A)
heavy: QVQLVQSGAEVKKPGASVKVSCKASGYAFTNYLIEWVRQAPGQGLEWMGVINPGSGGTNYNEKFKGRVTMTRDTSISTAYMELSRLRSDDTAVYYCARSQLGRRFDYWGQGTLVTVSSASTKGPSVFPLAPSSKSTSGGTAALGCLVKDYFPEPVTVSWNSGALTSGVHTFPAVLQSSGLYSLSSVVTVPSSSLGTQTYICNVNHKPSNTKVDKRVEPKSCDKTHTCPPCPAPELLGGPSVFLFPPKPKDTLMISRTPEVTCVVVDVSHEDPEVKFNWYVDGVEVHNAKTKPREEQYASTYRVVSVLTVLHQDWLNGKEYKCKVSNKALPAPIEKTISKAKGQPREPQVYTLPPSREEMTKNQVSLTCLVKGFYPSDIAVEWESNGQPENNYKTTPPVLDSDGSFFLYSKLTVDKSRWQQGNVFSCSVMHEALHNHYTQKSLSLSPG
light: DIQMTQSPSSLSASVGDRVTITCKASQDVRTGVAWYQQKPGKAPKLLIYSASYRNTGVPSRFSGSRSGTDFTFTISSLQPEDIATYYCQQHYSPPYTFGGGTKVEIKRTVAAPSVFIFPPSDEQLKSGTASVVCLLNNFYPREAKVQWKVDNALQSGNSQESVTEQDSKDSTYSLSSTLTLSKADYEKHKVYACEVTHQGLSSPVTKSFNRGEC
notes: Humanized Y1238
The Kd is a measure of binding affinity in units of concentration. The term koff denotes the first-order rate constant of dissociation. What is called kon is the second-order rate constant of association. As to B1, in test [1], the “IC50 for inhibition of proliferation of B cells, CD40L Trimer” value (shortened to “IC50 for inhibition … CD40L Trimer”) was 2.9 ng/mL and the “IC50 for inhibition of proliferation of B cells, CHO CD40L” value (from here on “IC50 for inhibition … CHO CD40L”) was found to be 20 ng/mL. Moreover, in the test with human-CD40 monomer [2], the affinity, expressed as Kd, was 6 nM; the koff was 0.0004 s⁻¹; the on-rate constant (kon) came to 66000 M⁻¹ s⁻¹.

B2: Y1238-hz2-P238K (antibody, human IgG1, kappa)
heavy: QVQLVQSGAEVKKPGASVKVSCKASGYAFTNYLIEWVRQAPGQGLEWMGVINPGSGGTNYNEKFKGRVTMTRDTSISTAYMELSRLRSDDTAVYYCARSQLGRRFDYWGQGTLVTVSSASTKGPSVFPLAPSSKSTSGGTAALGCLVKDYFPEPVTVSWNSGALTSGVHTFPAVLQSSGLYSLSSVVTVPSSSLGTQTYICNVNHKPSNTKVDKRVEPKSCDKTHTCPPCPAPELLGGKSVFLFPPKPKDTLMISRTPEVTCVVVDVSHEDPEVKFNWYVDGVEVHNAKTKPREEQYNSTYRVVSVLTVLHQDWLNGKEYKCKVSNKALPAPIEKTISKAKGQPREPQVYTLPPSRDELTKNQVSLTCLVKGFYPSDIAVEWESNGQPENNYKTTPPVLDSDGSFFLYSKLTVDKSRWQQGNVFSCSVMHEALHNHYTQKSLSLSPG
light: B1 light
notes: Humanized Y1238
Consider B2, for which, in test [1], the “IC50 for inhibition … CD40L Trimer” value came out at 2.7 ng/mL and the “IC50 for inhibition … CHO CD40L” value was 21 ng/mL. Besides, in the test with human-CD40 monomer [2], the Kd is 6.2 nM, the koff is 0.00043 s⁻¹ and the kon turned out to be 70000 M⁻¹ s⁻¹.

B3: humanized Y1238 hz1 (hz-HC1 / hz-LC1), IgG1.3f (antibody, V domains shown)
VH: QVQLVQSGAEVKKPGASVKVSCKASGYAFTNYLIEWVRQAPGQGLEWMGVINPGSGGTNYNEKFKGRVTMTRDTSISTAYMELSRLRSDDTAVYYCARSQLGRRFDYWGQGTLVTVSS
VL: DIQMTQSPSSLSASVGDRVTITCKASQDVRTGVAWYQQKPGKAPKLLIYSASYRNTGVPSRFSGSGSGTDFTFTISSLQPEDIATYYCQQHYSPPYTFGGGTKVEIK
notes: IgG1.3f heavy constant, common CL; expression supernatant; also called Sup 1
As for B3, in the test with human-CD40 monomer [3], the Kd amounted to 3 nM, the koff is 0.00019 s⁻¹ and the kon came out at 65000 M⁻¹ s⁻¹. Also, in the test with human-CD40 monomer [4], the Kd was 4.2 nM, the koff came to 0.0002 s⁻¹ and the kon amounted to 48000 M⁻¹ s⁻¹.

B4: Y1238 (antibody, V domains shown)
VH: QVQLQQSGAELVRPGTSVKVSCKASGYAFTNYLIEWVKQRPGQGLEWIGVINPGSGGTNYNEKFKGKATLTADKSSSTAYMQLSSLTSDDSAVYFCARSQLGRRFDYWGQGTTLTVSS
VL: DIVMTQSHKFMSTSVGDRVSITCKASQDVRTGVAWYQQKPGQSPKLLIYSASYRNTGVPDRFTGSRSGTDFTFTISSVQAEDLAVYYCQQHYSPPYTFGGGTKLEIK
For B4, in test [1], the “IC50 for inhibition … CD40L Trimer” value stood at 3.4 ng/mL and the “IC50 for inhibition … CHO CD40L” value was 19.9 ng/mL.

B5: chimeric Y1238 supernatant (Sup 56; HC-Chim / LC-Chim) (antibody)
VH: B4 VH
light: DIVMTQSHKFMSTSVGDRVSITCKASQDVRTGVAWYQQKPGQSPKLLIYSASYRNTGVPDRFTGSRSGTDFTFTISSVQAEDLAVYYCQQHYSPPYTFGGGTKLEIKRTVAAPSVFIFPPSDEQLKSGTASVVCLLNNFYPREAKVQWKVDNALQSGNSQESVTEQDSKDSTYSLSSTLTLSKADYEKHKVYACEVTHQGLSSPVTKSFNRGEC
notes: Tested as expression supernatant
As for B5, in the test with human-CD40 monomer [3], the Kd is 2.6 nM, the koff is 0.00022 s⁻¹ and the kon was 86000 M⁻¹ s⁻¹. In the test with human-CD40 monomer [4], the Kd came to 5.6 nM, the koff was 0.00032 s⁻¹ and the association rate constant (kon) turned out to be 57000 M⁻¹ s⁻¹.

B6: purified Y1238-chimeric IgG1 antibody (antibody)
VH: B4 VH
light: B5 light
notes: Called IgG1; also called Y1238-IgG1; chimeric, purified
In the case of B6, in the test with human-CD40 monomer [3], the Kd was 3.2 nM, the koff is 0.00027 s⁻¹ and the kon amounted to 83000 M⁻¹ s⁻¹. In addition, in the test with human-CD40 monomer [4], the Kd is 6.7 nM and 6.9 nM and 8.6 nM; the koff was 0.00038 s⁻¹ and 0.0004 s⁻¹ and 0.0005 s⁻¹; the kon was 56000 M⁻¹ s⁻¹ and 59000 M⁻¹ s⁻¹ and 58000 M⁻¹ s⁻¹.

B7: Y1238-IgG1.3f (antibody)
heavy: QVQLQQSGAELVRPGTSVKVSCKASGYAFTNYLIEWVKQRPGQGLEWIGVINPGSGGTNYNEKFKGKATLTADKSSSTAYMQLSSLTSDDSAVYFCARSQLGRRFDYWGQGTTLTVSSASTKGPSVFPLAPSSKSTSGGTAALGCLVKDYFPEPVTVSWNSGALTSGVHTFPAVLQSSGLYSLSSVVTVPSSSLGTQTYICNVNHKPSNTKVDKRVEPKSCDKTHTCPPCPAPEAEGAPSVFLFPPKPKDTLMISRTPEVTCVVVDVSHEDPEVKFNWYVDGVEVHNAKTKPREEQYNSTYRVVSVLTVLHQDWLNGKEYKCKVSNKALPAPIEKTISKAKGQPREPQVYTLPPSREEMTKNQVSLTCLVKGFYPSDIAVEWESNGQPENNYKTTPPVLDSDGSFFLYSKLTVDKSRWQQGNVFSCSVMHEALHNHYTQKSLSLSPGK
light: B5 light
notes: Chimeric mouse/human anti-human CD40; also called Y1238-hIgG1.3f; chimeric Y1238 IgG1.3f
In the test with human-CD40 monomer [5], B7 registered a Kd of 2.1 nM, a koff of 0.00021 s⁻¹ and a kon of 100000 M⁻¹ s⁻¹.

B8: BI-mAb-B (antibody, human IgG1, kappa, L234A L235A, V domains shown)
VH: EVQLVESGGGLVKPGGSLRLSCAASGFTFSDYGMHWVRQAPGKGLEWVAYISSGNRIIYYADTVKGRFTISRDNAKNSLYLQMNSLRAEDTAVYYCARQDGYRYAMDYWGQGTLVTVSS
VL: DIVMTQSPDSLAVSLGEKVTINCKSSQSLLNSGNQKNYLTWHQQKPGQPPKLLIYWTSTRESGVPDRFSGSGSGTDFTLTISSLQAEDVAVYYCQNDYTYPLTFGGGTKVEIKR
notes: Comparator anti-CD40 antibody; also called Antibody B (U.S. Pat. No. 9,090,696)
On to B8, for which the “IC50 for inhibition … CD40L Trimer” value in test [1] was determined as 7.4 ng/mL. Besides, in the test with human-CD40 monomer [2], the Kd worked out at 35 nM, the koff came to 0.0021 s⁻¹ and the kon is 61000 M⁻¹ s⁻¹.
